Substitutions are numbered along the chain they refer to.

Assay [1] concerns the target T1, recombinant human TNFα (human, UniProt P01375 77-233, biotinylated (2:1 molar ratio of biotin to rhTNFα) in the SPR assays; 125I-labeled in the receptor binding assays).
T1 construct: also called rhTNFα; rhTNF
Briefly: SPR (BIAcore), scFv over biotinylated rhTNFα. In general terms: In SPR one partner is held on a chip, and binding of the other changes the refractive index at the surface.

The target in assay [2] is T1, recombinant human TNFα. The assay can be described thus: SPR (BIAcore), scFv over biotinylated rhTNFα. The source holds these as a separate data set.

T1 sequence (P01375 77-233 limits assumed): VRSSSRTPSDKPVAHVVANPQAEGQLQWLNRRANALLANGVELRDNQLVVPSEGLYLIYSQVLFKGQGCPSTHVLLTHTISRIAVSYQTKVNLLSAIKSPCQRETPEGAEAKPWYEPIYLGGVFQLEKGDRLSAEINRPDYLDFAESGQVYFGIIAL

B1: 3C-H2 / LOE7 scFv (scFv, V domains shown)
VH: QVQLVESGGGLVQPGRSLRLSCAASGFTFDDYAMHWVRQAPGKGLDWVSAITWNSGHIDYADSVEGRFAVSRDNAKNALYLQMNSLRPEDTAVYYCAKASYLSTASSLEYWGQGTLVTVSS
VL: not shown
On to B1, for which the koff with recombinant human TNFα [1] came to 0.0015 s⁻¹. The “fold faster off rate than with the D2E7 VH CDR3” value in the assay with recombinant human TNFα [2] was 3 fold.

B2: 2SD4 VH / VLLOE5 scFv (scFv, V domains shown)
VH: B1 VH with A97T, A105S, E109D, Y110N
VL: DIQMTQSPSSLSASIGDRVTITCRASQGIRNYLAWYQQKPGKAPKLLIYAASTLQSGVPSRFSGSGSGTDFTLTISSLQPEDVATYYCQKYNSAPYYFGQGTKVEIK
On to B2, for which the koff in the assay with recombinant human TNFα [1] turned out to be 0.0116 s⁻¹.

One may read the koff as the first-order rate constant of dissociation.

Values taken from patent US20130115224A1 (published 2013).
